Measured values: patent publication US6734169B2, “Apolipoprotein A-I agonists and their use to treat dyslipidemic disorders” (priority 1997, dated 2004)

Biological target: T1, LCAT (purified from human plasma) (Homo sapiens, UniProt P04180)
T1 construct: The reaction is initiated by addition of LCAT (purified from human plasma); from tissue
T1 sequence (P04180 25-440): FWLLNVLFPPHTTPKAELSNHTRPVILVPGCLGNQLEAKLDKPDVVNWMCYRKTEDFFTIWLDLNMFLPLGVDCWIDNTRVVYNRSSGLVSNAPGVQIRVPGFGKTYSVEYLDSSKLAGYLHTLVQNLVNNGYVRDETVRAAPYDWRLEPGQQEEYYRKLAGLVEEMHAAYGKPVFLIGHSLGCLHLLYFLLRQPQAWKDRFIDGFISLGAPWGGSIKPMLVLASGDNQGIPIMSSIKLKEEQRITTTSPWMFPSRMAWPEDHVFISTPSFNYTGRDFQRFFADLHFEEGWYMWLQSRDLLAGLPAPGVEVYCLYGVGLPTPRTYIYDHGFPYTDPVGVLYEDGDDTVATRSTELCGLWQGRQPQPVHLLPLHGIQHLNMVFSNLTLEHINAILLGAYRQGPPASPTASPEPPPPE
Assay: LCAT activation assay
Assay type: biochemical
Details: LCAT activation as compared with native human ApoA-I (=100%); equivalent masses of peptide or ApoA-I; SUVs of EPC or POPC and radiolabelled cholesterol; listed as peptide 18AM4
Method: The peptides synthesized as described in Section 6, supra, were analyzed in vitro for their ability to activate LCAT. In the LCAT assay, substrate vesicles (small unilamellar vesicles or “SUVs”) composed of egg phophatidylcholine (EPC) or 1-Palmitoyl-2-oleyl-phosphatidylcholine (POPC) and radiolabelled cholesterol are preincubated with equivalent masses either of peptide or ApoA-I (isolated from human plasma). The reaction is initiated by addition of LCAT (purified from human plasma). Native ApoA-I, which was used as positive control, represents 100% activation activity. “Specific activity” (i.e., units of activity (LCAT activation)/unit of mass) of the peptides can be calculated as the concentration of peptide that achieves maximum LCAT activation. For example, a series of concentrations of the peptide (e.g., a limiting dilution) can be assayed to determine the “specific activity” for the peptide—the concentration which achieves maximal LCAT activation (i.e., percentage conversion of cholesterol to cholesterol ester) at a specific timepoint in the assay (e.g., 1 hr.). When plotting percentage conversion of cholesterol at, e.c., 1 hr., against the concentration of peptide used, the “specific activity” can be identified as the concentration of peptide that achieves a plateau on the plotted curve. […]

EWLEAFYKKVLEKLKELF [peptide 246]
ACTIVITY (%) LCAT: less than 4%
